Biological target: zTNF4 (UniProt Q9Y275)
Assay: cell-based or functional assay

Chain of UniProt Q9Y275 (Q9Y275 134-285 limits assumed): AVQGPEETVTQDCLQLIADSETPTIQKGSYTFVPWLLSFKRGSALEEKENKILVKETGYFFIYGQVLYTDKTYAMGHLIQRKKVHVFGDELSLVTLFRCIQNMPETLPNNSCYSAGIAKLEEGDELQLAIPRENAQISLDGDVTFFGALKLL
Chain of Atacicept (chain): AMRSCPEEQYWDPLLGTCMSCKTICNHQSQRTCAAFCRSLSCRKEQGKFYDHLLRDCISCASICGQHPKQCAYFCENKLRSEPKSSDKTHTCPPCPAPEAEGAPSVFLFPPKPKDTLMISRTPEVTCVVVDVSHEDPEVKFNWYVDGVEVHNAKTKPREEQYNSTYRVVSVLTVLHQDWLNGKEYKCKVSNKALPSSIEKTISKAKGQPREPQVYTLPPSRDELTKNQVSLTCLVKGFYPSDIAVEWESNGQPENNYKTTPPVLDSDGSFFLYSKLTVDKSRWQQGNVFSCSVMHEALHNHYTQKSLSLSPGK

Substance: Atacicept (Fc fusion)
- Biological activity (U/mL); Atacicept 25/1; 1 Mo +5° C.: 137000 U/mL
- Biological activity (U/mL); Atacicept 25/1; 1 Mo+25° C.: 134000 U/mL
- Biological activity (U/mL); Atacicept 25/1; 2 Mo +5° C.: 135000 U/mL
- Biological activity (U/mL); Atacicept 25/1; 2 Mo+25° C.: 125000 U/mL
- Biological activity (U/mL); Atacicept 25/1; 3 Mo +5° C.: 136000 U/mL
- Biological activity (U/mL); Atacicept 25/1; 3 Mo+25° C.: 132000 U/mL
- Biological activity (U/mL); Atacicept 25/1; 6 Mo +5° C.: 127000 U/mL
- Biological activity (U/mL); Atacicept 25/1; 6 Mo+25° C.: 118000 U/mL
- Biological activity (U/mL); Atacicept 25/1; 9 Mo +5° C.: 147000 U/mL
- Biological activity (U/mL); Atacicept 25/1; 12 Mo +5° C.: 131000 U/mL
- Biological activity (U/mL); Atacicept 25/1; 18 Mo +5° C.: 108000 U/mL
- Biological activity (U/mL); Atacicept 25/1; Zero Time (5° C. block): 140000 U/mL
- Biological activity (U/mL); Atacicept 25/1; Zero Time (25° C. block): 140000 U/mL
- Biological activity (U/mL); Atacicept 25/1.2; 1 Mo +5° C.: 116000 U/mL
- Biological activity (U/mL); Atacicept 25/1.2; 1 Mo+25° C.: 114000 U/mL
- Biological activity (U/mL); Atacicept 25/1.2; 2 Mo +5° C.: 126000 U/mL
- Biological activity (U/mL); Atacicept 25/1.2; 2 Mo+25° C.: 118000 U/mL
- Biological activity (U/mL); Atacicept 25/1.2; 3 Mo +5° C.: 122000 U/mL
- Biological activity (U/mL); Atacicept 25/1.2; 3 Mo+25° C.: 114000 U/mL
- Biological activity (U/mL); Atacicept 25/1.2; 6 Mo +5° C.: 115000 U/mL
- Biological activity (U/mL); Atacicept 25/1.2; 6 Mo+25° C.: 103000 U/mL
- Biological activity (U/mL); Atacicept 25/1.2; 9 Mo +5° C.: 124000 U/mL
- Biological activity (U/mL); Atacicept 25/1.2; 12 Mo +5° C.: 106000 U/mL
- Biological activity (U/mL); Atacicept 25/1.2; 18 Mo +5° C.: 113000 U/mL
- Biological activity (U/mL); Atacicept 25/1.2; Zero Time (5° C. block): 112000 U/mL
- Biological activity (U/mL); Atacicept 25/1.2; Zero Time (25° C. block): 112000 U/mL
- Biological activity (U/mL); Atacicept 75/1; 1 Mo +5° C.: 410000 U/mL
- Biological activity (U/mL); Atacicept 75/1; 1 Mo+25° C.: 388000 U/mL
- Biological activity (U/mL); Atacicept 75/1; 2 Mo +5° C.: 380000 U/mL
- Biological activity (U/mL); Atacicept 75/1; 2 Mo+25° C.: 337000 U/mL
- Biological activity (U/mL); Atacicept 75/1; 3 Mo +5° C.: 374000 U/mL
- Biological activity (U/mL); Atacicept 75/1; 3 Mo+25° C.: 365000 U/mL
- Biological activity (U/mL); Atacicept 75/1; 6 Mo +5° C.: 364000 U/mL
- Biological activity (U/mL); Atacicept 75/1; 6 Mo+25° C.: 328000 U/mL
- Biological activity (U/mL); Atacicept 75/1; 9 Mo +5° C.: 468000 U/mL
- Biological activity (U/mL); Atacicept 75/1; 12 Mo +5° C.: 346000 U/mL
- Biological activity (U/mL); Atacicept 75/1; Zero Time (5° C. block): 423000 U/mL
- Biological activity (U/mL); Atacicept 75/1; Zero Time (25° C. block): 423000 U/mL
- Biological activity (U/mL); Atacicept 150/1; 1 Mo +5° C.: 775000 U/mL
- Biological activity (U/mL); Atacicept 150/1; 1 Mo+25° C.: 777000 U/mL
- Biological activity (U/mL); Atacicept 150/1; 2 Mo +5° C.: 755000 U/mL
- Biological activity (U/mL); Atacicept 150/1; 2 Mo+25° C.: 720000 U/mL
- Biological activity (U/mL); Atacicept 150/1; 3 Mo +5° C.: 819000 U/mL
- Biological activity (U/mL); Atacicept 150/1; 3 Mo+25° C.: 761000 U/mL
- Biological activity (U/mL); Atacicept 150/1; 6 Mo +5° C.: 815000 U/mL
- Biological activity (U/mL); Atacicept 150/1; 6 Mo+25° C.: 677000 U/mL
- Biological activity (U/mL); Atacicept 150/1; 9 Mo +5° C.: 843000 U/mL
- Biological activity (U/mL); Atacicept 150/1; 12 Mo +5° C.: 810000 U/mL
- Biological activity (U/mL); Atacicept 150/1; 18 Mo +5° C.: 565000 U/mL
- Biological activity (U/mL); Atacicept 150/1; Zero Time (5° C. block): 836000 U/mL
- Biological activity (U/mL); Atacicept 150/1; Zero Time (25° C. block): 836000 U/mL
- Biological activity (U/mL); Atacicept 150/1.2; 1 Mo +5° C.: 643000 U/mL
- Biological activity (U/mL); Atacicept 150/1.2; 1 Mo+25° C.: 695000 U/mL
- Biological activity (U/mL); Atacicept 150/1.2; 2 Mo +5° C.: 743000 U/mL
- Biological activity (U/mL); Atacicept 150/1.2; 2 Mo+25° C.: 697000 U/mL
- Biological activity (U/mL); Atacicept 150/1.2; 3 Mo +5° C.: 695000 U/mL
- Biological activity (U/mL); Atacicept 150/1.2; 3 Mo+25° C.: 607000 U/mL
- Biological activity (U/mL); Atacicept 150/1.2; 6 Mo +5° C.: 645000 U/mL
- Biological activity (U/mL); Atacicept 150/1.2; 6 Mo+25° C.: 587000 U/mL
- Biological activity (U/mL); Atacicept 150/1.2; 9 Mo +5° C.: 714000 U/mL
- Biological activity (U/mL); Atacicept 150/1.2; 12 Mo +5° C.: 620000 U/mL
- Biological activity (U/mL); Atacicept 150/1.2; 18 Mo +5° C.: 551000 U/mL
- Biological activity (U/mL); Atacicept 150/1.2; Zero Time (5° C. block): 647000 U/mL
- Biological activity (U/mL); Atacicept 150/1.2; Zero Time (25° C. block): 647000 U/mL

Substance: TACI-Fc5 (Fc fusion)
- Bioassay (U/mL); 21A, 70 mg/mL; 2-8° C.; 4 w: 366000 U/mL
- Bioassay (U/mL); 21A, 70 mg/mL; 2-8° C.; 8 w: 319000 U/mL
- Bioassay (U/mL); 21A, 70 mg/mL; 2-8° C.; 13 w: 388000 U/mL
- Bioassay (U/mL); 21A, 70 mg/mL; 2-8° C.; time 0: 348000 U/mL
- Bioassay (U/mL); 21A, 70 mg/mL; 25° C.; 4 w: 312000 U/mL
- Bioassay (U/mL); 21A, 70 mg/mL; 25° C.; 8 w: 279000 U/mL
- Bioassay (U/mL); 21A, 70 mg/mL; 25° C.; 13 w: 305000 U/mL
- Bioassay (U/mL); 21A, 70 mg/mL; 25° C.; time 0: 348000 U/mL
- Bioassay (U/mL); 21B, 70 mg/mL; 2-8° C.; 4 w: 318000 U/mL
- Bioassay (U/mL); 21B, 70 mg/mL; 2-8° C.; 8 w: 290000 U/mL
- Bioassay (U/mL); 21B, 70 mg/mL; 2-8° C.; 13 w: 358000 U/mL
- Bioassay (U/mL); 21B, 70 mg/mL; 2-8° C.; time 0: 336000 U/mL
- Bioassay (U/mL); 21B, 70 mg/mL; 25° C.; 4 w: 302000 U/mL
- Bioassay (U/mL); 21B, 70 mg/mL; 25° C.; 8 w: 268000 U/mL
- Bioassay (U/mL); 21B, 70 mg/mL; 25° C.; 13 w: 343000 U/mL
- Bioassay (U/mL); 21B, 70 mg/mL; 25° C.; time 0: 336000 U/mL
- Bioassay (U/mL); 21C, 70 mg/mL; 2-8° C.; 4 w: 334000 U/mL
- Bioassay (U/mL); 21C, 70 mg/mL; 2-8° C.; 8 w: 307000 U/mL
- Bioassay (U/mL); 21C, 70 mg/mL; 2-8° C.; 13 w: 335000 U/mL
- Bioassay (U/mL); 21C, 70 mg/mL; 2-8° C.; time 0: 323000 U/mL
- Bioassay (U/mL); 21C, 70 mg/mL; 25° C.; 4 w: 316000 U/mL
- Bioassay (U/mL); 21C, 70 mg/mL; 25° C.; 8 w: 269000 U/mL
- Bioassay (U/mL); 21C, 70 mg/mL; 25° C.; 13 w: 318000 U/mL
- Bioassay (U/mL); 21C, 70 mg/mL; 25° C.; time 0: 323000 U/mL
- Bioassay (U/mL); 21D, 100 mg/mL; 2-8° C.; 4 w: 452000 U/mL
- Bioassay (U/mL); 21D, 100 mg/mL; 2-8° C.; 8 w: 432000 U/mL
- Bioassay (U/mL); 21D, 100 mg/mL; 2-8° C.; 13 w: 490000 U/mL
- Bioassay (U/mL); 21D, 100 mg/mL; 2-8° C.; time 0: 461000 U/mL
- Bioassay (U/mL); 21D, 100 mg/mL; 25° C.; 4 w: 509000 U/mL
- Bioassay (U/mL); 21D, 100 mg/mL; 25° C.; 8 w: 431000 U/mL
- Bioassay (U/mL); 21D, 100 mg/mL; 25° C.; 13 w: 419000 U/mL
- Bioassay (U/mL); 21D, 100 mg/mL; 25° C.; time 0: 461000 U/mL
- Bioassay (U/mL); 21E, 100 mg/mL; 2-8° C.; 4 w: 439000 U/mL
- Bioassay (U/mL); 21E, 100 mg/mL; 2-8° C.; 8 w: 436000 U/mL
- Bioassay (U/mL); 21E, 100 mg/mL; 2-8° C.; 13 w: 470000 U/mL
- Bioassay (U/mL); 21E, 100 mg/mL; 2-8° C.; time 0: 459000 U/mL
- Bioassay (U/mL); 21E, 100 mg/mL; 25° C.; 4 w: 442000 U/mL
- Bioassay (U/mL); 21E, 100 mg/mL; 25° C.; 8 w: 396000 U/mL
- Bioassay (U/mL); 21E, 100 mg/mL; 25° C.; 13 w: 405000 U/mL
- Bioassay (U/mL); 21E, 100 mg/mL; 25° C.; time 0: 459000 U/mL
- Bioassay (U/mL); 21F, 100 mg/mL; 2-8° C.; 4 w: 470000 U/mL
- Bioassay (U/mL); 21F, 100 mg/mL; 2-8° C.; 8 w: 407000 U/mL
- Bioassay (U/mL); 21F, 100 mg/mL; 2-8° C.; 13 w: 424000 U/mL
- Bioassay (U/mL); 21F, 100 mg/mL; 2-8° C.; time 0: 456000 U/mL
- Bioassay (U/mL); 21F, 100 mg/mL; 25° C.; 4 w: 449000 U/mL
- Bioassay (U/mL); 21F, 100 mg/mL; 25° C.; 8 w: 387000 U/mL
- Bioassay (U/mL); 21F, 100 mg/mL; 25° C.; 13 w: 476000 U/mL
- Bioassay (U/mL); 21F, 100 mg/mL; 25° C.; time 0: 456000 U/mL
- Bioassay (U/mL); 21G, 100 mg/mL; 2-8° C.; 4 w: 543000 U/mL
- Bioassay (U/mL); 21G, 100 mg/mL; 2-8° C.; 8 w: 401000 U/mL
- Bioassay (U/mL); 21G, 100 mg/mL; 2-8° C.; 13 w: 445000 U/mL
- Bioassay (U/mL); 21G, 100 mg/mL; 2-8° C.; time 0: 494000 U/mL
- Bioassay (U/mL); 21G, 100 mg/mL; 25° C.; 4 w: 497000 U/mL
- Bioassay (U/mL); 21G, 100 mg/mL; 25° C.; 8 w: 433000 U/mL
- Bioassay (U/mL); 21G, 100 mg/mL; 25° C.; 13 w: 441000 U/mL
- Bioassay (U/mL); 21G, 100 mg/mL; 25° C.; time 0: 494000 U/mL
- Bioassay (U/mL); 21H, 100 mg/mL; 2-8° C.; 4 w: 446000 U/mL
- Bioassay (U/mL); 21H, 100 mg/mL; 2-8° C.; 8 w: 388000 U/mL
- Bioassay (U/mL); 21H, 100 mg/mL; 2-8° C.; 13 w: 445000 U/mL
- Bioassay (U/mL); 21H, 100 mg/mL; 2-8° C.; time 0: 472000 U/mL
- Bioassay (U/mL); 21H, 100 mg/mL; 25° C.; 4 w: 465000 U/mL
- Bioassay (U/mL); 21H, 100 mg/mL; 25° C.; 8 w: 366000 U/mL
- Bioassay (U/mL); 21H, 100 mg/mL; 25° C.; 13 w: 434000 U/mL
- Bioassay (U/mL); 21H, 100 mg/mL; 25° C.; time 0: 472000 U/mL
